The target in the assay is Notch-1 (endogenous; p300 or p120 not told) (human (endogenous in HeLa and BxPC3)) (UniProt P46531). The assay can be described thus: co-IP; HA-tagged c-Src wild type, Y416F or Y527F transiently transfected in HeLa; whole-cell lysate, IP with anti-Notch-1, blot with anti-HA and anti-Notch-1.

Take “HA-tagged c-Src Y416F (kinase dead) (enzyme)”: the fold reduction of binding against wild type c-Src was > 3 fold.

The values are drawn from PMC3316571.
